Reference: publication PMC6167752 (ACS infectious diseases, 2018)

Key:
AAC(2′)-Ia = AAC(2′)-Ia (Providencia stuartii, UniProt Q52424); assay: X-ray crystal structure; assay type: binding
[1] = test system: CN[C@@H]1[C@@H](O)[C@@H](O[C@@H]2[C@@H](O)[C@H](O[C@H]3OC(CNCCO)=CC[C@H]3N)[C@@H](N)C[C@H]2NC(=O)[C@@H](O)CCN)OC[C@]1(C)O; assay: purified protein; assay type: biochemical, Providencia stuartii; conditions: 150 μM AcCoA, 25 mM MES pH 6, 25 °C

Chain of AAC(2′)-Ia (Q52424 whole entry): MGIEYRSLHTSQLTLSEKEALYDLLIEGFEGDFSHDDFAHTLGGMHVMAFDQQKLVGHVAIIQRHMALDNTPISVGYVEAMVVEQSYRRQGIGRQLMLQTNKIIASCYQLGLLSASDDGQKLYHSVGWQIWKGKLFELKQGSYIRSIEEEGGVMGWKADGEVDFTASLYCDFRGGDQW

For `CC(=O)SCCNC(=O)CCNC(=O)[C@H](O)C(C)(C)COP(=O)(O)OP(=O)(O)OC[C@H]1O[C@@H](n2cnc3c(N)ncnc32)[C@H](O)[C@@H]1OP(=O)(O)O` [acetyl-coenzyme A], the X-ray crystal structure (AAC(2′)-Ia; one molecule modelled) was “one acetyl-coenzyme A, and three coenzyme A molecules was evident in difference density maps”.

With AAC(2′)-Ia (Providencia stuartii) the Km [1] was 370 ± 90 µM, the kcat [1] was 0.9 ± 0.1 s⁻¹ and the kcat/Km [1] was 2400 M⁻¹ s⁻¹.

`CC(C)(COP(=O)(O)OP(=O)(O)OC[C@H]1O[C@@H](n2cnc3c(N)ncnc32)[C@H](O)[C@@H]1OP(=O)(O)O)[C@@H](O)C(=O)NCCC(=O)NCCS` [coenzyme A] was tested, and the X-ray crystal structure (AAC(2′)-Ia; active site) was “one dimer contained a coenzyme A bound to each active site”.
